# Data taken from patent US20190194345A1 (UNIVERSITY OF VIRGINIA PATENT FOUNDATION, published 2019).
# T1: SAS1B on the surface of live cancer cells (human, UniProt Q6HA08 24-431)
# T1 sequence: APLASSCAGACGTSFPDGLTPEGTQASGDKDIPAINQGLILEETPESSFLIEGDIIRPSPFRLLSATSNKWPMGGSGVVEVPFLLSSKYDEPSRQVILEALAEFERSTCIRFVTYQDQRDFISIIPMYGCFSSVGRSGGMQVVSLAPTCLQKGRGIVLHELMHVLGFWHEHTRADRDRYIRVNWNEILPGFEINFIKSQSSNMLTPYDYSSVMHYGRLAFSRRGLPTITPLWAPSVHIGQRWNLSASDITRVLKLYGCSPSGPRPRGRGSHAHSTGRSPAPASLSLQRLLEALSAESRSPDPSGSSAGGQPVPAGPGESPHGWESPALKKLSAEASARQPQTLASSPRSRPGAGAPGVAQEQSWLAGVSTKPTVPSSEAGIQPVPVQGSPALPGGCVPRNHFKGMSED
# T2: SAS1B extracellular domain (aa 164-431) polypeptide (human, UniProt Q6HA08 164-431)
# T2 construct: mammalian cell-expressed recombinant; also called truncated SAS1B
# T2 sequence: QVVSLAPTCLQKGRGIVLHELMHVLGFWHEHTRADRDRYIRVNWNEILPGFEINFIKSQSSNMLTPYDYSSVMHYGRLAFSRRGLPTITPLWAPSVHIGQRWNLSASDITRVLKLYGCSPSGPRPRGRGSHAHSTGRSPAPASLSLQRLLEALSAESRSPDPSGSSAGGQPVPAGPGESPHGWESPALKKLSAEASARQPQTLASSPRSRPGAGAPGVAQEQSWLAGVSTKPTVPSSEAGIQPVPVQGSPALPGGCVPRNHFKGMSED
# T3: mouse SAS1B (mouse, UniProt Q6HA09 24-435, limits assumed)
# T3 sequence (looked up): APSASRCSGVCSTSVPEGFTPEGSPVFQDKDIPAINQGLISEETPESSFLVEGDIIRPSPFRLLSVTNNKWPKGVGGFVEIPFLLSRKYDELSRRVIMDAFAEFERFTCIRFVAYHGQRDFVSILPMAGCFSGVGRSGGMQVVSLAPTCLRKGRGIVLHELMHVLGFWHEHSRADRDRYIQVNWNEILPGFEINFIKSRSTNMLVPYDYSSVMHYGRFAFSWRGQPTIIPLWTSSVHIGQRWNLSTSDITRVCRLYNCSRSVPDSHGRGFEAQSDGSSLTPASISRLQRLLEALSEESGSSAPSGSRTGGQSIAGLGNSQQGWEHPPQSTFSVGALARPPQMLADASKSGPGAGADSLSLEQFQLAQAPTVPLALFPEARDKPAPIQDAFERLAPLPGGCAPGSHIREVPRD
# T4: SAS1B C-terminus extracellular domain (aa 160-431) (human, UniProt Q6HA08 160-431)
# T4 construct: also called C-term extracellular domain
# T4 sequence: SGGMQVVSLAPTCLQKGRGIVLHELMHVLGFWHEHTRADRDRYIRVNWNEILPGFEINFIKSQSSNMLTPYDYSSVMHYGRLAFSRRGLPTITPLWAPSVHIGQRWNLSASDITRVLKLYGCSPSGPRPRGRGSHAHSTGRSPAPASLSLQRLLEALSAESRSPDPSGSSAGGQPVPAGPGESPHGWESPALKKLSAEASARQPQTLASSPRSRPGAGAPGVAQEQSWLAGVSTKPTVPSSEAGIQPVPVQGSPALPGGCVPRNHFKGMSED
# B1: anti-human SAS1B murine monoclonal antibody SB4 (antibody, IgG2a, V domains shown)
# VH: EVQLQQSGPELVKPGSSVKISCKPSGYTFTDYNMVWMKQSHGKSLEWIGAINPNNGGTTYNQKFKGKATLTVDKSSSTAYMELRSLTSEDSAVYYCAPNWDWFAYWGQGTLVTVSA
# VL: DVLMTQTPLSLPVSLGDQASISCRSSQSILHSNGNTYLEWYLQKPGQSPKLLIYKVSNRFSGVPDRFSGSGSGTDFTLKISRVEAEDLGVYYCFQGSHVPFTFGSGTKLEIK
# notes: Mouse hybridoma antibody, isotype IgG2a-k; also called SB4 mAb
# B2: anti-human SAS1B murine monoclonal antibody SB2 (antibody, IgG2b, V domains shown)
# VH: EVQLQQSGPELVKPGSSVKISCKASGYTFTDYNMVWVKQSHGKSLEWIGAVNPNNGGTSYNQKFKGKATLTVDKSSSTAYMELRSLTSEDSAVYYCVPNWDWFAYWGQGTLVTVSA
# VL: DVLMTQTPLSLPVSLGDQASISCRSSQSLVHSNGNTYLEWYLQKPGQSPNLLIYKVSNRFSGVPDRFSGSGSGTDFTLKISRVEAEDLGVYYCFQGSHVPFTFGSGTKLEIK
# notes: also called SB2 mAb
# B3: anti-human SAS1B murine monoclonal antibody SB3 (antibody, IgG2b, V domains shown)
# VH: EVQLQQSGPELVKPGSSVKISCKASGYTFTDYNMVWVKQSHGKSLEWIGAVNPNNGGTSYNQKFKGKATLTVDKSSSTAYMELRSLTSEDSAVYYCVPNWDWFAYWGQGTLVTVSA
# VL: DVLMTQTPLSLPVSLGDQASISCRSSQSLVHSNGNTYLEWYLQKPGQSPNLLIYKVSNRFSGVPDRFSGSGSGTDFTLKISRVEAEDLGVYYCFQGSHVPFTFGSGTKLEIK
# notes: also called SB3 mAb
# B4: anti-human SAS1B murine monoclonal antibody SB5 (antibody, IgG2b, V domains shown)
# VH: EVQLQQSGPELVKPGSSVKISCKPSGYTFTDYNMVWMKQSHGKSLEWIGAINPNNGGTTYNQKFKGKATLTVDKSSSTAYMELRSLTSEDSAVYYCAPNWDWFAYWGQGTLVTVSA
# VL: DVLMTQIPLSLPVSLGDQASISCRSSQSILHSNGNTYLEWYLQKPGQSPKLLIYKVSNRFSGVPDRFSGSGSGTDFTLKISRVEAEDLGVYYCFQGSHVPFTFGSGTKLEIK
# notes: Mouse hybridoma antibody, isotype IgG2b-k; also called SB5 mAb
# B5: anti-human SAS1B murine monoclonal antibody SB6 (antibody, IgG2b, V domains shown)
# VH: EVQLQQSGPELVKPGSSVKISCKPSGYTFTDYNMVWMKQSHGKSLEWIGAINPNNGGTTYNQKFKGKATLTVDKSSSTAYMELRSLTSEDSAVYYCAPNWDWFAYWGQGTLVTVSA
# VL: DVLMTQIPLSLPVSLGDQASISCRSSQSILHSNGNTYLEWYLQKPGQSPKLLIYKVSNRFSGVPDRFSGSGSGTDFTLKISRVEAEDLGVYYCFQGSHVPFTFGSGTKLEIK
# B6: anti-human SAS1B murine monoclonal antibody SB7 (antibody, IgG2b, V domains shown)
# VH: EVQLQQSGPELVKPGSSVKISCKPSGYTFTDYNMVWMKQSHGKSLEWIGAINPNNGGTTYNQKFKGKATLTVDKSSSTAYMELRSLTSEDSAVYYCAPNWDWFAYWGQGTLVTVSA
# VL: DVLMTQIPLSLPVSLGDQASISCRSSQSILHSNGNTYLEWYLQKPGQSPKLLIYKVSNRFSGVPDRFSGSGSGTDFTLKISRVEAEDLGVYYCFQGSHVPFTFGSGTKLEIK
# B7: anti-human SAS1B murine monoclonal antibody SB1 (antibody, IgG2a, V domains shown)
# VH: EVQLQQSGPELVKPGSSVKISCKASGYTFTDYNMDWVKQSHGKSLEWIGAINPNNGGTSYNQKFKGKATLTVDKSSSTAYMELRSLTSEDSAVYYCATNEYWGQGTTLTVSS
# VL: NIVMTQSPKSMSMSVGERVTLSCKASENVGTYVSWYQQKPEQSPKLLIYGASNRYTGVPDRFTGSGSATDFTLTISSVQAEDLADYHCGQSYSYPWTFGGGTKLEIK
# notes: also called SB1 mAb
# Legend:
# [1] = target: T1, SAS1B on the surface of live cancer …; assay: cell-based or functional assay
# [2] = target: T2, SAS1B extracellular domain (aa 164-431) …; assay: western blot, mammalian cell-expressed recombinant SAS1B
# Protocol: SAS1B monoclonal antibodies were analyzed with mammalian cell-expressed recombinant SAS1B by western blotting.
# mouse SAS1B = target: T3, mouse SAS1B; assay: summary table (Table 1)
# [3] = target: T4, SAS1B C-terminus extracellular domain …; assay: western blot (FIG. 22)
Binder,"percent of cells killed at 0.1 nM mAb, ADC assay with anti-mouse Fab-cleavable-Duocarmycin, pancreatic cancer cells 366, ~72 h, cellular ATP [1] [%]","percent of cells killed at 1 nM mAb, ADC assay with 15 nM anti-mouse Fab-cleavable-Duocarmycin, MPanc96 pancreatic cancer cells, ~72 h, cellular ATP [1] [%]","percent of cells killed at 1 nM mAb, ADC assay with anti-mouse Fab-cleavable-Duocarmycin, pancreatic cancer cells 366, ~72 h, cellular ATP [1] [%]",binding result [2],binding result (mouse SAS1B),binding result [3],"viability at 0.01 nM mAb, ADC assay with Fab-anti-mouse IgG Fc conjugated to Duocarmycin DM (cleavable linker), uterine cancer cells [1] [%]"
B1,33,64,77,no binding,no binding,no binding,–
B2,59,80,88,no binding,no binding,no binding,66
B3,–,–,–,no binding,no binding,no binding,–
B4,49,57,76,no binding,no binding,no binding,87
B5,–,–,–,no binding,no binding,no binding,–
B6,–,–,–,no binding,no binding,no binding,–
B7,–,–,–,no binding,–,no binding,–
